Data taken from IntAct's records for PubMed 19549854.

B1: [PIN+] prion protein RNQ1 (Saccharomyces cerevisiae), P25367 (parent)
chain: MDTDKLISEAESHFSQGNHAEAVAKLTSAAQSNPNDEQMSTIESLIQKIAGYVMDNRSGGSDASQDRAAGGGSSFMNTLMADSKGSSQTQLGKLALLATVMTHSSNKGSSNRGFDVGTVMSMLSGSGGGSQSMGASGLAALASQFFKSGNNSQGQGQGQGQGQGQGQGQGQGSFTALASLASSFMNSNNNNQQGQNQSSGGSSFGALASMASSFMHSNNNQNSNNSQQGYNQSYQNGNQNSQGYNNQQYQGGNGGYQQQQGQSGGAFSSLASMAQSYLGGGQTQSNQQQYNQQGQNNQQQYQQQGQNYQHQQQGQQQQQGHSSSFSALASMASSYLGNNSNSNSSYGGQQQANEYGRPQQNGQQQSNEYGRPQYGGNQNSNGQHESFNFSGNFSQQNNNGNQNRY

Variants of: B1
Details: with mas5_yeast YDJ1, P25491
Chain of mas5_yeast YDJ1, P25491 (P25491 whole entry): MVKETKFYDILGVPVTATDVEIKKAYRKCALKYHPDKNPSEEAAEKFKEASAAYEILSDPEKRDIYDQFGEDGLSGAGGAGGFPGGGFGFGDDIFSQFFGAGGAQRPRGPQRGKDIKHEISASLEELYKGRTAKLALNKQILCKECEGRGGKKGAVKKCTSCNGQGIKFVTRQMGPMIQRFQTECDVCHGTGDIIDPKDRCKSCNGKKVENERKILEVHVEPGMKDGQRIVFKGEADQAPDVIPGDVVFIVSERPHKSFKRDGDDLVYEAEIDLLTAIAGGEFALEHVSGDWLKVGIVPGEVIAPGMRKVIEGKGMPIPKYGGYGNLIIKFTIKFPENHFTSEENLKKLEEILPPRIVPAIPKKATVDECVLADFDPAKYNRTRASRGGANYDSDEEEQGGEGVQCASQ

Variant	effect of a mutation on the interaction
Q257Y	disrupting interaction
N253Y	disrupting interaction
